Measured values reported in the supplement of paper PMC10567573.
± gives the standard deviation.

Assay: protein stability index of a GFP-peptide fusion (GPS, HEK-293T) (PSI 1-6); higher = more stable
[1] = treatment: DMSO, c terminus: a fixed tail appended
[2] = treatment: MLN4924 1 uM, 8 h, c terminus: a fixed tail appended
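Further: 24-mer peptide tiles fused after GFP, lentivirally expressed, FACS-sorted into six equal bins by GFP/DsRed ratio, decoded by Illumina sequencing, PSI is the read-weighted mean bin number.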

Sequence	protein stability index [1]	protein stability index [2]	protein stability index (treatment: DMSO, c terminus: native)	protein stability index (treatment: MLN4924 1 uM, 8 h, c terminus: native)
LLHVSSPNLASDSDLSRRSSSTMS [KCNA1]	4.26 ± 0.069	4.37 ± 0.055	–	–
AQDSIELLTTSGIQFKKHEEEGIE [CNOT7]	5.46 ± 0.24	5.48 ± 0.34	–	–
PLVEKKRRARINESLQELRLLLAG [HES6]	2.63 ± 0.6	2.75 ± 0.73	–	–
QDRFRIELSEEGAEGRVVGRKDIT [MOSPD3]	4.91 ± 0.23	5.1 ± 0.31	–	–
TRIFTEDRFAQDSEMKKCSDYESI [PPEF2]	4.42 ± 0.098	4.25 ± 0.18	–	–
VKELRPQLMTSQFISVFSNLLESK [ZER1]	2.38 ± 0.24	2.61 ± 0.44	–	–
VEKIRKLPNTLLRKDKDVARLQDF [ANKRD40]	2.93 ± 0.22	3.02 ± 0.28	–	–
QGFSYSKSNGRGGSQAGGSGSAGQ [MYOZ1]	4.76 ± 0.18	5.02 ± 0.16	–	–
VVVSVAGAFRKGKSFILDFMLRYL [ATL3]	2.55 ± 0.3	2.68 ± 0.34	–	–
YLTGTINGDPESVASLHWDGGALL [ADAMTS4]	2.88 ± 0.59	3.1 ± 0.32	–	–
PSPPAAPSVADNLLASSDAALSAS [SERTAD1]	5.25 ± 0.21	5.25 ± 0.094	–	–
HAPGVPKILVGNRLHLAFKRQVPT [RAB40B]	2.49 ± 0.5	2.6 ± 0.35	–	–
LQRNPKHELTAKYLNYYQGMLDVA [P3H4]	2.3 ± 0.13	2.39 ± 0.41	–	–
LIILASGGPQALVNIMRTYTYEKL [CTNNB1]	3.04 ± 0.21	3.35 ± 0.76	–	–
RRLRDMVERPHSGLPGKVFACLSV [KCNG1]	2.47 ± 0.49	2.4 ± 0.49	–	–
PLSSQPQAIVTEDKTDISSGRARQ [MLH1]	4.99 ± 0.14	5.15 ± 0.23	–	–
MSQPRTPEQALDTPGDCPPGRRDE [TMEM175]	5.38 ± 0.17	5.58 ± 0.19	–	–

Sequence	protein stability index [1]	protein stability index [2]	protein stability index (treatment: DMSO, c terminus: native)	protein stability index (treatment: MLN4924 1 uM, 8 h, c terminus: native)
RIFTFICKDSESNKHLCYVFDSEK [GULP1]	2.06 ± 0.56	2.21 ± 0.31	–	–
FRLPGLSRREREPEPPAAVDFLEP [FCHO1]	4.24 ± 0.3	4.31 ± 0.33	–	–
QIVQLTQQVDTNISVILPTVHEVD [DENND6A]	3.07 ± 0.35	3.3 ± 0.37	–	–
TNSTPLRAACFDGHLEIVKYLVEH [FEM1C]	2.28 ± 0.49	2.39 ± 0.55	–	–
LLCPETYVWVPIEQCLPSLENSKY [ATE1]	2.19 ± 0.15	2.03 ± 0.18	–	–
PVDSVLFYAITTLHNLLLHQEGAK [CTNNB1]	2.81 ± 0.48	2.71 ± 0.17	–	–
TVQDYQDLIDRGWRRSGKYVYKPV [ATE1]	2.89 ± 0.21	3.03 ± 0.51	–	–
AEKLKVQALKDRGLSIPRADTLDE [LSM1]	4.93 ± 0.3	4.98 ± 0.22	–	–
LGLSRAQPVQSKPQKASAPAADPP [PDLIM7]	4.71 ± 0.16	4.86 ± 0.37	–	–
IGDVHLAPFTDEQLYMEQFTKANF [CARM1]	3 ± 0.2	3.03 ± 0.36	–	–
SSMKKFCRPLLPSCTTRLCQEEQL [PSD2]	2.88 ± 0.29	2.98 ± 0.15	–	–
AFADIIHSLKESGQLWLDAYLHQ [FADS1]	–	–	2.7 ± 0.78	2.49 ± 0.58
KYLKKREDSIPLRGLSQNLFSNSD [SASS6]	3.15 ± 0.2	3.4 ± 0.29	–	–
GMESYQEVTVQRNCCLTLCNFSIP [ZER1]	2.41 ± 0.52	2.1 ± 0.42	–	–
LKPTFTKQQIANLDKQAKLSRAYD [USP39]	3.61 ± 0.11	3.74 ± 0.16	–	–
GSLHYTTLRTLTGQDTMLKAMFSG [KCTD13]	2.46 ± 0.26	2.61 ± 0.21	–	–
